Experimental data taken from patent US20100159482A1 (LIFE TECHNOLOGIES, published 2010).
The star is where a group is joined. MeOSuc = COC(=O)CCC(=O)*; CH2Cl = ClC*

Experiments:
proteinase K [1] = target: T1, proteinase K (UniProt P06873 106-384); assay: computed, not measured: CDOCKER docking on PDB 3PRK, MM-PBSA rescoring, average of three poses
Protocol: Based on the studies cited in the previous examples, a study was carried out to examine the change in total binding free energy of peptide inhibitor to proteinase K to form the peptide-inhibitor complex. The molecular docking of inhibitors MeOSuc-AAPV-CH₂Cl (SEQ ID NO:2), MeOSuc-AAPL-CH₂Cl (SEQ ID NO:10), MeOSuc-AAAPV-CH₂Cl (SEQ ID NO:8), MeOSuc-AAAPL-CH₂Cl (SEQ ID NO:7), MeOSuc-AAAPF-CH₂Cl (SEQ ID NO:9), MeOSuc-AAPA-CH₂Cl (SEQ ID NO:1), and MeOSuc-AAPF-CH₂Cl (SEQ ID NO:5) into the binding site of Proteinase K was performed using CDOCKER of Discovery Studio V2.01 (1. (Accelrys Software Inc., Discovery Studio Modeling Environment, Release 2.01, San Diego: Accelrys Software Inc., 2008., trial version) which uses a CHARMm based Molecular Dynamics docking algorithm. The crystal structure of the protein complex covalently formed between proteinase K and MeOSuc-AAPA-CH₂Cl (SEQ ID NO:1) was used as a starting structure for molecular simulation (PDB CODE: 3PRK; Wolf W M et al. J. Biol. Chem. 1991, 266, 17695). Water molecules were removed from the protein complex, protonated at pH 8.0 and the structure was energy minimized using CHARMm force field with a convergence threshold of 0.05 kcal/mol A. Then, the inhibitor part was removed from the protein complex and was used to build the structures of MeOSuc-AAPV-CH₂Cl (SEQ ID NO:2) (see FIG. 8A), MeOSuc-AAPL-CH₂Cl (SEQ ID NO:10) (see FIG. 9A), MeOSuc-AAAPV-CH₂Cl (SEQ ID NO:8) (see FIG. 8B), MeOSuc-AAAPL-CH₂Cl (SEQ ID NO:7) (see FIG. 9B), MeOSuc-AAAPF-CH₂Cl (SEQ ID NO:9) (see FIG. 11B), MeOSuc-AAPA-CH₂Cl (SEQ ID NO:1) (see FIG. 10), and MeOSuc-AAPF-CH₂Cl (SEQ ID NO:5) (see FIG. 11A). A site sphere with a radius of 13A was created at center of the active site of inhibitor-free proteinase K.
The CDOCKER algorithm can generate several different orientations for each inhibitor in the active site of proteinase K within the site sphere and perform MD-based simulated annealing followed by final minimization. […] The MD simulation for each orientation consisted of 1000 steps at 2 fs per step and at 1000 K. No inherent restrictions were placed on the conformers of inhibitors.

proteinase K [2] = target: T1, proteinase K; assay: cell-based or functional assay

T1 sequence (P06873 106-384 limits assumed): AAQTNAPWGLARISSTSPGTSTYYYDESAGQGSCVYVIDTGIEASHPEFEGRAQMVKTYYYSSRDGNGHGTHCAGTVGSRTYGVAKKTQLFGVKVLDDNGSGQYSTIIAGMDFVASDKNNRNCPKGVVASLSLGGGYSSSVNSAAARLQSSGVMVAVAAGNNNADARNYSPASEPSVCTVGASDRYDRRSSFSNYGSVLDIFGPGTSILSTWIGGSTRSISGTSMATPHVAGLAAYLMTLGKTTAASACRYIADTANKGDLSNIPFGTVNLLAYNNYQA

ΔΔGBind (total binding free energy, calculated) (proteinase K [1]) [kcal/mol] | effective inhibitory concentration, beta-actin RT-qPCR from HeLa cell lysates (proteinase K [2]) [mM] | lowest inhibitory concentration in the stopped mixture, indirect linked RT-qPCR assay (proteinase K [2]) [mM] | Molecule
-14.6 | – | – | methoxysuccinyl-AlaAlaProAla-chloromethyl ketone (peptide)
1.32 | 0.5 | – | AAAPV (HELM PEPTIDE1{[COC(=O)CCC(=O)[*:2]].A.A.A.P.V.[ClC[*:1]]}$$$$V2.0; SMILES COC(=O)CCC(=O)N[C@@H](C)C(=O)N[C@@H](C)C(=O)N[C@@H](C)C(=O)N1CCC[C@H]1C(=O)N[C@H](C(=O)CCl)C(C)C) [MeOSuc-AlaAlaAlaProVal-CH2Cl]
9.95 | 0.1 | – | AAAPF (HELM PEPTIDE1{[COC(=O)CCC(=O)[*:2]].A.A.A.P.F.[ClC[*:1]]}$$$$V2.0; SMILES COC(=O)CCC(=O)N[C@@H](C)C(=O)N[C@@H](C)C(=O)N[C@@H](C)C(=O)N1CCC[C@H]1C(=O)N[C@@H](Cc1ccccc1)C(=O)CCl) [MeOSuc-AlaAlaAlaProPhe-CH2Cl]
-6.63 | 0.5 | ~0.25 | MeOSuc-AAPV-CH2Cl (also called MeOSuc-AAPV-CH2Cl; MSVCK) [methoxysuccinyl-AlaAlaProVal-chloromethyl ketone]
-2.55 | – | ~0.05 | AAPF (HELM PEPTIDE1{[COC(=O)CCC(=O)[*:2]].A.A.P.F.[ClC[*:1]]}$$$$V2.0; SMILES COC(=O)CCC(=O)N[C@@H](C)C(=O)N[C@@H](C)C(=O)N1CCC[C@H]1C(=O)N[C@@H](Cc1ccccc1)C(=O)CCl, also called MeOSuc-AAPF-CH2Cl; MSFCK) [MeOSuc-AlaAlaProPhe-CH2Cl]
-12.7 | ~0.1 | – | AAPL (HELM PEPTIDE1{[COC(=O)CCC(=O)[*:2]].A.A.P.L.[ClC[*:1]]}$$$$V2.0; SMILES COC(=O)CCC(=O)N[C@@H](C)C(=O)N[C@@H](C)C(=O)N1CCC[C@H]1C(=O)N[C@@H](CC(C)C)C(=O)CCl, also called MeOSuc-AAPL-CH2Cl; methoxysuccinyl-AAPL-chloromethyl ketone) [MeOSuc-AlaAlaProLeu-CH2Cl]
– | – | ~0.5 | APAL (HELM PEPTIDE1{[COC(=O)CCC(=O)[*:2]].A.P.A.L.[ClC[*:1]]}$$$$V2.0; SMILES COC(=O)CCC(=O)N[C@@H](C)C(=O)N1CCC[C@H]1C(=O)N[C@@H](C)C(=O)N[C@@H](CC(C)C)C(=O)CCl) [MeOSuc-AlaProAlaLeu-CH2Cl]
-30.9 | ~0.1 | ~0.05 | AAAPL (HELM PEPTIDE1{[COC(=O)CCC(=O)[*:2]].A.A.A.P.L.[ClC[*:1]]}$$$$V2.0; SMILES COC(=O)CCC(=O)N[C@@H](C)C(=O)N[C@@H](C)C(=O)N[C@@H](C)C(=O)N1CCC[C@H]1C(=O)N[C@@H](CC(C)C)C(=O)CCl, also called MeOSuc-AAAPL-CH2Cl; A3PL) [MeOSuc-AlaAlaAlaProLeu-CH2Cl]
